Results: PMC7531512

Target: biotinylated human neonatal Fc receptor (FcRn) (human) (UniProt P55899)
Assay: BLI

Substance | Kd [nM]
AlbuCORE_2 scaffold (split human serum albumin, split site 300-301) (complex) | 580
AlbuCORE_7 scaffold (split human serum albumin, split site 171-172) (complex) | 1650
AlbuCORE_4 scaffold (split human serum albumin, split site 441-442) (complex) | 980
AlbuCORE_6 scaffold (split human serum albumin, deletion of residue 84) (complex) | 1600
AlbuCORE_1 scaffold (split human serum albumin, split site 339-340) (complex) | 190
AlbuCORE_3 scaffold (split human serum albumin, split site 364-365) (complex) | 760
AlbuCORE_9 scaffold (split human serum albumin, split site 281-282) (complex) | 1250
